Source: the nanobody polyreactivity screen of Harvey et al. (2022)

Assay: yeast display, Sf9 membrane polyspecificity reagent, FACS + sequencing; frameworks hold sequencing errors
Summary of the method: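 Galactose-induced (36–48 hours) yeast carrying a synthetic nanobody display library were exposed to 10% biotinylated, detergent-solubilized Sf9 membrane reagent at 4 °C for 1 hour. FACS followed streptavidin microbead enrichment, using low and high (top ~1%) gates for expression (anti-HA) and reagent binding (streptavidin). Colony PCR, MiSeq 2 × 250 sequencing and CDR-length filtering followed. Labels for polyreactivity reflect the gate of origin.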

Row | Sequence | polyreactivity (PSR sort gate)
1 | QVQLVESGGGLVQAGGSLRLICAASGLTYVSYAMGWYRQAPGKERELVAGITSGGGTTDYADSVKGRFTISRDNAKTTVYLQMNSLTPEDTAVYDCNARSVYDGFWYNYWGQGTQVTVSS | high polyreactivity
2 | QVQLVESGGGLVQAGGSLRLICAASGMTFYSYAMGWYRQAPGKERELVAAISATGGRTYYADSEKGRFTISRDNAKNTVYLQMNSLKPEDTEVYYCAAKSSYEYGYWGQGTQVTVSS | high polyreactivity
3 | QVQLVESGGGLVQAGGSLRLICAASGNTFGYNAMVWYRQAPGKERELVASITLSGGSTYYADSVKGRFTISRDTAKNTVYLQMFCLKPEDTAVYYCNADTFQWWDIADVYVIVKYGYWGQGTQVTVSS | low polyreactivity
4 | QVQLVESGGGLVQAGGSLRLICAASGNTFKYNAMGWYRQAPGKERELVAAITWRGTSTSYADSVKGRFTISRDNAKNTVYLQMNSLKAEDTAFYYSNAVYYWYGRVAYSFGYWGQGTQVTVSS | high polyreactivity
5 | QVQLVESGGGLVQAGGSLRLICAASGNTFSVYTMGWYRQAPGKERELVAAISFRSGSTYYADSVKGRFTISRDNAKNTVYLLMNSLKPEDTAVYYCAAYVRQLQVVRGVSNYDSWGQGTQVTVSS | high polyreactivity
6 | QVQLVESGGGLVQAGGSLRLICAASGNTLGPYAMGWYRQAPGKERELVAAITWSGGITDYADSVKGRFTISRDNAKNTVYLQMNSLKPEDTAVYYCNAGPSLGIFQGTSVGLRYDYWGQGTQVTVSS | low polyreactivity
7 | QVQLVESGGGLVQAGGSLRLICAASGRICISNAMGWYRQAPGKERELVAAITWIGDRTYYADSVKGRFTISRDNAKNTVYLQMISLKPEDTAVYYCAADSYSPYTMDYWRQGTQVTVSS | high polyreactivity
8 | QVQLVESGGGLVQAGGSLRLICAASGRIFDFYAMGWYRQAPGKERELVAAITNGGRTNYADSVKGRFTISRDNAKNTVYLQMNSLKPEDTAVYYCAARLAYWYYYAWRGPYYYWGQGTQVTVSS | high polyreactivity
9 | QVQLVESGGGLVQAGGSLRLICAASGRIFDSYTMGWYRQAPGKERELVAAISRGGGSTYYADSVKGRFTISRDNAKNTVYLQMNSLKPEDTAVFYCAASSYLNSRFKFDYWGQGTQVTVSS | low polyreactivity
10 | QVQLVESGGGLVQAGGSLRLICAASGRIFGYYAMGWYRQAPGKERELVAAIDGSDGTTYYADSVKGRFTISRDNAKNTVYFHMNSLKPEDTAVYYCAKDNSLPDYDYWGQGTQVTVSS | low polyreactivity
11 | QVQLVESGGGLVQAGGSLRLICAASGRIFLENALGWYRQAPGKERELVATISNGGSTSYADSVKGRFTISRDNAKNKVYLQMISLKPEDTSVYYCAADYCWPYILYGYDYWGEGTQVTVSS | low polyreactivity
12 | QVQLVESGGGLVQAGGSLRLICAASGRIFLYYAMGWYRQAPGKERELVAAITRGGGTTYADSVKGRFTISRDNAKNTVYLQMNSLKPEDTAVYYCAKRYSYYPGFDYWGQGTQVTVSS | high polyreactivity
13 | QVQLVESGGGLVQAGGSLRLICAASGRIFNRYAMGWYRQAPGNERELVAAITWSGDRTNYADSVKGRFTISRDNAKNTVYLLMNSLKPEDTAVYYCAAADGIIESDYWGQGTQVTVSS | low polyreactivity
14 | QVQLVESGGGLVQAGGSLRLICAASGRIFNYNYMGLYRQAPGKERELLAAISWRGGSTYYADSVKGRFTISRDNAKNTVYLQMKSLKPEDTAVYYCNKRTRYSTGSRYDYWGQGTQVTVSS | high polyreactivity
15 | QVQLVESGGGLVQAGGSLRLICAASGRIFRANARGWYRQAPGKERELVATIRNSGGITYYADSVKGRFTISRDHAKNTVYLQMNSLKPEDTALYYCGNLGRYCYDYWGQGTQVTVSS | high polyreactivity
16 | QVQLVESGGGLVQAGGSLRLICAASGRIFRINAMGWYRQAPGKEREFVAAISWRSGSTYYADSVKGRFTISRDNAKNSVYLQMNSLKPEDTAVYYCAAKLYGYRSGYYYWGQGTQVTVSS | high polyreactivity
17 | QVQLVESGGGLVQAGGSLRLICAASGRIFRPYAMGWYRQAPGKERELVAAISSSGGSTYYADSVKGRFTISRDNAKNTVYLQMNSLKPEDTAVYYCATYFARGRRYDYWGQGTQVTVSS | high polyreactivity
18 | QVQLVESGGGLVQAGGSLRLICAASGRIFSSYAMGWYRQAPGKERELVAAISRGGGRTYYADSVKGRFTISRDNAKNTVYLQMNSLKPEDTAVYYCAVRLYYSIRYYYWGQGTQVTVSS | high polyreactivity
19 | QVQLVESGGGLVQAGGSLRLICAASGRIFSYYAMGWYRQAPGKERELVARITSRGASTYYADSVKGRFTISRDNAKNTVYLQMNSLKPEDTAVYYCAARYIPIQYPSYRTWGGYSWGQGTQVTVSS | high polyreactivity
20 | QVQLVESGGGLVQAGGSLRLICAASGRIFVYNAKGSYSQAPGKDRELVATITSGGSTYYSDSVKGRFTISRDNAKNTVYFQMNSLKPEDTAVYYCAARRWYVHYFAYGYWGQGTQVTVSS | low polyreactivity
21 | QVQLVESGGGLVQAGGSLRLICAASGRIFYGYAMGWYRPAPGKEREFVAAITVSAGSTYYADSVKGRFTISRDNAKNTVYLQMNSLKPEDTAVYYCAAKRYVYPSYRFDYWGQGTQVTVSS | low polyreactivity
22 | QVQLVESGGGLVQAGGSLRLICAASGRIFYYYTMGWYRQAPGKERELVAAITRSGSSTYADSVKGRFTISRDNAKNTVYLQMNSLKPEDTAVYYCAADYIRRYDYWGQGTQVTVSS | low polyreactivity
23 | QVQLVESGGGLVQAGGSLRLICAASGRIVEGYAMGWYRQAPGKERELDAAISSGGSTYYADSVKGRFTISRDNAKNTVYLQMNSLKPEDTAVYYCNAAHSVVSHGPGAGLEMDYWGEGTQVTVSS | low polyreactivity
24 | QVQLVESGGGLVQAGGSLRLICAASGRNFTKYAMGLYRQAPGKERELVAAINFRGDRTYYADSVKGRYTISRDNAKNTVYLQMNSLKPEDTAVYYCAAEWSTYWLFNYEYWGQGTQVTVSS | high polyreactivity
25 | QVQLVESGGGLVQAGGSLRLICAASGRSFNLYAMGWYRQAPGKERELVAAISYSGGRTYSADSVKGRFTISRDNAKNTVYLQMNSLKPEDTAVYYCNTVRGSVRQAGVGYEYWGQGTQVTVSS | high polyreactivity
26 | QVQLVESGGGLVQAGGSLRLICAASGRTFCAYAMGWYRQAPGKERELVAAITTSGGSTNYADSVKGRFTISRDTAKYTVYLEMKSLKPEETAVYYCNADPTYHVVNGVGFWGQGTQVTVSS | low polyreactivity
27 | QVQLVESGGGLVQAGGSLRLICAASGRTFFPYAMGWYRQAPGKEREFFAAISTRGGSTYYADSVKGRFTISRDNAKNTVYLQMNSLKPEDTAVYYCAARFHKKGYWVYRMDYWGQGTQVTVSS | high polyreactivity
28 | QVQLVESGGGLVQAGGSLRLICAASGRTFGGNAMGWYRQAPGKERELVASITSRGGTTYYADSVKGRFTISRDNAKNTVYLQMNSLKPEDTAVYYCAALRRSSFGYWGQGTQVTVSS | high polyreactivity
29 | QVQLVESGGGLVQAGGSLRLICAASGRTFGVYSMGWYRQAPGKERELVAAISATGGSTYYADSVKGRFTISRDNAKNTVYLQMNSLKPEDTAVYYCARGGTTLYWGQGTQVTVSS | high polyreactivity
30 | QVQLVESGGGLVQAGGSLRLICAASGRTFQYNAMGWYRQAPGKERELVAAISARAGSTYYADSVKGRFTISRDNAKNTVYLQMNRLKPEDTAVYYCAARAWTRSVPYGFYYWGQGTQVTVSS | high polyreactivity
